# In patent US20240092919A1 (Ablynx, published 2024):
# Substitutions are numbered along the chain they refer to. Names and notes keep the numbering of the source.
# T1: Cynomolgus TCR(AEA41865/AEA41866)-zipper protein (cynomolgus monkey)
# T1 construct: also called cyTCR-zipper protein; cynoTCR zipper
# T1 TCR alpha: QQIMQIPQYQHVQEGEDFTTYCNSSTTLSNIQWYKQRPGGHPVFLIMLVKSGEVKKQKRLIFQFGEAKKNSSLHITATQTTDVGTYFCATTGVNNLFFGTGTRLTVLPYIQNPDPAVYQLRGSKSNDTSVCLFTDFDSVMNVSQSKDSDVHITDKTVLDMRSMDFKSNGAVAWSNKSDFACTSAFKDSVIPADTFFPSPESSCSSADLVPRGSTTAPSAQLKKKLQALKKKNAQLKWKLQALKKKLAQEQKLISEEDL
# T1 TCR beta: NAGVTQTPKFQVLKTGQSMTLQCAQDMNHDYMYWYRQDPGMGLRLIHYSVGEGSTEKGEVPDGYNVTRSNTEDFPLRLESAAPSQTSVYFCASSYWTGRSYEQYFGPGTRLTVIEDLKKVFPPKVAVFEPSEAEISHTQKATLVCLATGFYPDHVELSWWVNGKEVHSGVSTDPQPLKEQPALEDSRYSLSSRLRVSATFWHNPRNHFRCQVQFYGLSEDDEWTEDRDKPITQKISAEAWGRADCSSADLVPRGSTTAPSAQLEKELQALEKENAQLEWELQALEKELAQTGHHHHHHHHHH
# T2: Human T cell receptor on human primary T cells (human, UniProt P01848 1-140; P01850 1-176)
# T2 construct: whole, on cells
# T2 TCR alpha (looked up): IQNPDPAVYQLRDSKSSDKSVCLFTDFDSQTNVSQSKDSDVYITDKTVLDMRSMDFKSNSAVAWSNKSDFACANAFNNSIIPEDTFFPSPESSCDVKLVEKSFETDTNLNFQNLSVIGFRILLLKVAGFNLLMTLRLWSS
# T2 TCR beta (looked up): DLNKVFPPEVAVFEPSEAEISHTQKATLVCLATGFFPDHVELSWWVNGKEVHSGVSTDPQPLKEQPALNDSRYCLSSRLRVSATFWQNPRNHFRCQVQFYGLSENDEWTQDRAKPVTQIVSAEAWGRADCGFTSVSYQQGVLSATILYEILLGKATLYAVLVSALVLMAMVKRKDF
# T3: human T cell receptor on human primary T cells (human, UniProt P01848 1-140; P01850 1-176)
# T3 construct: whole, on cells
# T3 TCR alpha (looked up): T2 TCR alpha (looked up)
# T3 TCR beta (looked up): T2 TCR beta (looked up)
# B1: T017000141 (VHH, not shown: small tags and cut ends)
# VHH: EVQLVESGGGVVQPGGSLRLSCVASGDVHKINFLGWYRQAPGKEREKVAHISIGDQTDYADSAKGRFTISRDESKNMVYLQMNSLRPEDTALYFCRAFSRIYPYDYWGQGTLVTVSS
# B2: T017000624 (VHH, not shown: small tags and cut ends)
# VHH: B1 VHH with D27Y, L34Y, M77T, F94Y, F98L, Y102W
# B3: T017000679 (VHH)
# VHH: B1 VHH with E1D, D27Y, L34Y, M77T, F94Y, F98L, Y102W
# B4: T017000681 (VHH)
# VHH: B1 VHH with E1D, D27Y, L34Y, M77T, L92T, F94Y, F98L, Y102W
# B5: T017000131 (bispecific antibody)
# chain: DVQLVESGGGLVQAGGSLRLSCAASGITSKINDMGWYRQTPGNYREWVASITATGTTNYRDSVKGRFTISRDNAKSTVYLQMNSLKPEDTTVYYCNTFPPISNFWGQGTLVTVSSGGGGSGGGGSGGGGSGGGGSGGGGSGGGGSGGGGSEVQLVESGGGLVQPGGSLRLSCVASGDVHKINFLGWYRQAPGKEREKVAHISIGDQTDYADSAKGRFTISRDESKNMVYLQMNSLKPEDTAVYFCRAFSRIYPYDYWGQGTLVTVSSA
# notes: also called A0110056A10(E1D)-35GS-T0170056G05-A
# B6: T017000634 (bispecific antibody)
# chain: B5 chain with L161V, D177Y, L184Y, M227T, K236R, V242L, F244Y, F248L, Y252W
# notes: also called A0110056A10(E1D)-35GS-T0170056G05(L11V, D27Y, L34Y, M77T, K83R, V89L, F91Y, F95L, Y99W)-A
# B7: T017000128 (bispecific antibody)
# chain: DVQLVESGGGLVQPGGSLRLSCVASGDVHKINFLGWYRQAPGKEREKVAHISIGDQTDYADSAKGRFTISRDESKNMVYLQMNSLKPEDTAVYFCRAFSRIYPYDYWGQGTLVTVSSGGGGSGGGGSGGGGSGGGGSGGGGSGGGGSGGGGSEVQLVESGGGLVQAGGSLRLSCAASGITSKINDMGWYRQTPGNYREWVASITATGTTNYRDSVKGRFTISRDNAKSTVYLQMNSLKPEDTTVYYCNTFPPISNFWGQGTLVTVSSA
# B8: T017000633 (bispecific antibody)
# chain: B7 chain with L11V, D27Y, L34Y, M77T, K86R, V92L, F94Y, F98L, Y102W
# B9: T017000351 (VHH, not shown: small tags and cut ends)
# VHH: B1 VHH
# notes: also called T0170000351
# B10: T0170056G05 (VHH)
# VHH: B1 VHH with V11L, R86K, L92V
# notes: also called T01700056G05; parental ISVD
# B11: T017000345 (VHH, not shown: small tags and cut ends)
# VHH: B1 VHH with F94Y
# B12: T017000685 (VHH, not shown: small tags and cut ends)
# VHH: B1 VHH with D27E, K30Q, L34Y, M77T, F94Y, F98L, Y102W
# B13: T017000687 (VHH, not shown: small tags and cut ends)
# VHH: B1 VHH with D27S, K30Q, L34Y, M77T, F94Y, F98L, Y102W
# Biological target: T1, Cynomolgus …
# Experiment: higher koff divided by lower koff, humanTCR zipper vs cynoTCR zipper (SPR)
# Throughout, for % Lysis, T cell mediated MOLM-13 cell killing, cynomolgus primary T cells, E:T 10:1: test concentration or dose not given here.
# Throughout, for % Lysis, T cell mediated MOLM-13 cell killing, human primary T cells, E:T 10:1: test concentration or dose not given here.
row,Binder,Gap in off-rate human vs cyno
1,B1,12.4 fold
2,B2,4.5 fold

# Biological target: T2, Human T cell receptor on human primary …
# Experiment: flow cytometry competition with Flag3-His6-tagged anti-TCR ISVD ligand, human primary T cells
# Procedure: (§1) Subsequently, cells were resuspended in FACS buffer supplemented with 1 μg/ml Propidium Iodide (PI, Sigma, P4170) to distinguish live from dead cells. Cells were analyzed using a FACS Array flow cytometer (BD Biosciences) using Flowing Software. First a P1 population which represented more than 80% of the total cell population was selected based on FSC-SSC distribution. In this gate, 10000 cells were counted during acquisition. From this population the Propidium iodide or TO-PRO©-3 Iodide positive cells (dead cells) were excluded and the median or Mean PE value was calculated.
row,Binder,IC50
1,B3,100 nM
2,B4,92 nM

# Biological target: T4, Cynomolgus T cell receptor on the HSC-F cynomolgus T cell line (cynomolgus monkey)
# T4 construct: whole, on cells; also called HSC-F cells; HSC-F cyno T cell line (NIBIO JCRB1164)
# Experiment: flow cytometry competition with Flag3-His6-tagged anti-TCR ISVD ligand, HSC-F cells
# Procedure: as §1
row,Binder,IC50
1,B3,620 nM
2,B4,730 nM

# Biological target: T2, Human T cell receptor on human primary …
# Experiment: flow cytometry, human primary T cells
row,Binder,EC50
1,B1,100 nM
2,B2,46 nM

# Biological target: T5, Cynomolgus T cell receptor on cynomolgus primary T cells (cynomolgus monkey)
# Experiment: cell-based or functional assay
row,Binder,"IC50 (M), xCELLigence CHO Flp-In huCD123 cell killing, Cynomolgus T cell mediated killing"
1,B5,8.1e-11 M
2,B6,1.9e-11 M
3,B7,1.9e-11 M
4,B8,5.1e-12 M

# Biological target: T2, Human T cell receptor on human primary …
# Experiment: cell-based or functional assay
row,Binder,"IC50 (M), xCELLigence CHO Flp-In huCD123 cell killing, Human T cell mediated killing"
1,B5,3.4e-11 M
2,B6,1.1e-11 M
3,B7,1.4e-11 M
4,B8,9.1e-12 M

# Biological target: T1, Cynomolgus …
# Experiment: SPR, ProteOn XPR36, 25 C, immobilised TCR-zipper
# Source text: (§2) HuTCR-zipper or cyTCR-zipper protein was immobilized on a GLC sensor chip (between 100-200 RU) via amine coupling chemistry, using EDC/NHS for activation of the carboxyl groups on the chip surface (running buffer: HBS-EP+, pH7.4). […] Processed sensorgrams were fitted with the Langmuir model (1:1 interaction) using ProteOn Manager 3.1.0 (Version 3.1.0.6) software.
row,Binder,Kd
1,B5,1600 nM
2,B6,200 nM
3,B8,17 nM

# Biological target: T3, human T cell receptor on human primary …
# Experiment: flow cytometry, human primary T cells
# Procedure: Dose-dependent binding of the purified monovalent ISVD variants to CHO-K1 huTCR(2XN9)/huCD3 overexpressing cells or human primary T cells was evaluated by flow cytometry. […] Next, cells were washed 3 times with FACS buffer and incubated with 1 μg/ml THE™ His Tag Antibody, mAb, Mouse (Genscript, A00186) and washed again. […] Subsequently, cells were resuspended in FACS buffer supplemented with 5 nM TO-PRO®-3 Iodide to distinguish live from dead cells, which are removed during the gating procedure. Cells were analyzed using a FACS Array flow cytometer (BD Biosciences) and Flowing Software. First a P1 population which represented more than 80% of the total cell population was selected based on FSC-SSC distribution. In this gate, 10000 cells were counted during acquisition. From this population the TO-PRO®-3+ cells (dead cells) were excluded and the mean fluorescence intensity (MFI) PE value was calculated.
row,Binder,EC50
1,B9,110 nM
2,B10,110 nM
3,B11,160 nM

# Biological target: T2, Human T cell receptor on human primary …
# Experiment: cell-based or functional assay
# Remark: another data set of the same source
Binder,"% Lysis, T cell mediated MOLM-13 cell killing, human primary T cells, E:T 10:1","EC50 (M), T cell mediated MOLM-13 cell killing, human primary T cells, E:T 10:1"
B5,20%,1.3e-09 M
B6,,1.4e-10 M
B7,32%,2.3e-10 M
B8,31%,1.2e-10 M

# Biological target: T5, Cynomolgus T cell receptor on …
# Experiment: cell-based or functional assay
# Remark: another data set of the same source
Binder,"% lysis, MOLM-13, Cynomolgus T cell mediated killing","EC50 (M), MOLM-13, Cynomolgus T cell mediated killing"
B5,14%,8.9e-10 M
B6,33%,2.1e-10 M
B7,37%,4.1e-10 M
B8,44%,

# Biological target: T2, Human T cell receptor on human primary …
# Experiment: cell-based or functional assay
# Remark: another data set of the same source
Binder,"% lysis, MOLM-13, Human T cell mediated killing","EC50 (M), MOLM-13, Human T cell mediated killing"
B5,20%,
B6,22%,2.5e-10 M
B7,24%,3e-10 M
B8,26%,1.8e-10 M

# Biological target: T2, Human T cell receptor on human primary …
# Experiment: flow cytometry, human primary T cells
# Remark: another data set of the same source
# Procedure: The ISVD variants were characterized for binding to CHO-K1 huTCR(2XN9)/huCD3 or to human and cynomolgus primary T cells. […] Next, cells were washed 3 times with FACS buffer and incubated with 1 μg/ml ANTI-FLAG® M2 Ab (Sigma, F1804) and washed again. […] Subsequently, cells were resuspended in FACS buffer supplemented with 5 nM TO-PRO®-3 Iodide to distinguish live from dead cells, which are removed during the gating procedure. Cells were analyzed using a FACS Array flow cytometer (BD Biosciences) and Flowing Software. First a P1 population which represented more than 80% of the total cell population was selected based on FSC-SSC distribution. In this gate, 10000 cells were counted during acquisition. From this population the TO-PRO®-3+cells (dead cells) were excluded and the mean fluorescence intensity (MFI) PE value was calculated.
row,Binder,EC50
1,B2,45 nM

# Biological target: T5, Cynomolgus T cell receptor on …
# Experiment: cell-based or functional assay
# Remark: another data set of the same source
Binder,"% lysis, KG-1a, Cynomolgus T cell mediated killing","EC50 (M), KG-1a, Cynomolgus T cell mediated killing"
B5,14%,1.6e-09 M
B6,41%,2.7e-10 M
B7,61%,6.7e-10 M
B8,64%,3.4e-10 M

# Biological target: T2, Human T cell receptor on human primary …
# Experiment: cell-based or functional assay
# Remark: another data set of the same source
Binder,"% lysis, KG-1a, Human T cell mediated killing","EC50 (M), KG-1a, Human T cell mediated killing"
B5,29%,2.4e-09 M
B6,49%,4.4e-10 M
B7,51%,1.3e-09 M
B8,56%,6.8e-10 M

# Biological target: T1, Cynomolgus …
# Experiment: SPR, ProteOn XPR36, 25 C, immobilised TCR-zipper
# Remark: another data set of the same source
# Source text: as §2
row,Binder,Kd
1,B1,220 nM
2,B2,6.3 nM

# Biological target: T1, Cynomolgus …
# Experiment: SPR off-rate, ProteOn XPR36, immobilised TCR-zipper
row,Binder,koff
1,B12,0.00399 s⁻¹
2,B13,0.00427 s⁻¹

# Biological target: T5, Cynomolgus T cell receptor on …
# Experiment: cell-based or functional assay
# Remark: another data set of the same source
Binder,"% Lysis, T cell mediated MOLM-13 cell killing, cynomolgus primary T cells, E:T 10:1","EC50 (M), T cell mediated MOLM-13 cell killing, cynomolgus primary T cells, E:T 10:1"
B5,14%,9e-10 M
B6,32%,1.2e-10 M
B7,37%,1.7e-10 M
B8,35%,5.2e-11 M
